Key:
[1] = target: Chp1CD LOOP1B/2B, SUMO tag removed, fluorescently labelled (for MST) (fission yeast (S. pombe)) (UniProt Q10103); experiment: MST; 300 ng fluorescent Chp1CD (SUMO removed) in 20 μl, H3K9me3Nucleosomes titrated (0 to 2.4 μM); 10 mM Tris-HCl pH 7.5, 150 mM NaCl, 0.5 mM DTT, 0.05% Tween-20, 10% glycerol; cubic fit, Kd interpolated at 50% bound
[2] = tested on: His6-SUMO-Chp1CD LOOP1B/2B (Schizosaccharomyces pombe); experiment: MST; settings: H3KC9me3 methyl-lysine analog; X. laevis H2A, H2B, H3, H4; Nucleosome pull-down: 20 mM HEPES pH 7.5, 100 mM KCl, 0.5 mM DTT, 40 mM imidazole, on ice; complex assembly and RNA pull-down: 20 mM HEPES pH 7.5, 75 mM KCl, 0.

Sequence of Chp1CD LOOP1B/2B, SUMO tag removed, fluorescently labelled (for MST) (fission yeast (S. pombe)) (Q10103 15-75 N33A/N35A/W49A/Y50A/D51A): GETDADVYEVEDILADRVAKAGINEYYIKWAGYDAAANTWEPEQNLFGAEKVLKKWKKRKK

Row | Substance | fold reduction in Kd against wild-type Chp1CD [1] | binding signal (fold reduction in Kd vs wt) [2]
1 | H3K9me3 methyl lysine analog (MLA) nucleosome (complex) | > 5 fold | 
2 | H3K9me3 nucleosome (601) |  | > 5

Source: PMC4849473
